Results taken from article PMC12430135, “A Unique Trimeric Assembly of Human Dishevelled 1 PDZ Domain in Crystal: Implication of Homo- and Hetero-Oligomerization During Wnt Signaling Process” (Molecules, 2025).

B1: PDZ domain of human Dishevelled 1 (hDvl1-PDZ), residues 246-340 with CW338, 339AT (domain or fragment, UniProt O14640 246-340, looked up)
chain: SLNIVTVTLNMERHHFLGISIVGQSNDRGDGGIYIGSIMKGGAVAADGRIEPGDMLLQVNDVNFENMSNDDAVRVLREIVSQTGPISLTVAKATD
notes: Dishevelled 1 (Dvl1), human, PDZ domain, residues 246-340, with two amino acid substitutions (CW338, 339AT); 15N-labelled (M9 medium) for NMR; Calculated molecular weight of the monomer printed as 10,754; also called human Dvl1-PDZ; hDvl1-PDZ1

Tests used:
[1] = biological target: Dvl PDZ PDZ (Homo sapiens) (UniProt O14640); conditions: cited from earlier work
[2] = biological target: the molecule itself; assay: crystal structure; hDvl1-PDZ at 8-9.5 mg/ml; vapor diffusion at 20 °C; 0.1 M sodium citrate pH 5.6, 0.5 M ammonium sulfate, 1.0 M lithium sulfate, 0.01 M glutathione, 0.01 M glutathione disulfide; 2.4 Å

Molecule	Kd [1]	stoichiometry N [2]
Dvl C-terminus C-terminus (from UniProt O14640)	7 µM	
B1		3
